{"source": "patent US20230002481A1", "about": "(Chugai, published 2023)", "target": "T1, recombinant cyno C1r2s2 His/Flag tetramer (cynomolgus monkey, limits assumed)", "T1 construct": "Heterotetramer of two C1r-His and two C1s-Flag chains, co-expressed in FreeStyle293-F cells; also called cyno C1r2s2s", "T1 chain 1": "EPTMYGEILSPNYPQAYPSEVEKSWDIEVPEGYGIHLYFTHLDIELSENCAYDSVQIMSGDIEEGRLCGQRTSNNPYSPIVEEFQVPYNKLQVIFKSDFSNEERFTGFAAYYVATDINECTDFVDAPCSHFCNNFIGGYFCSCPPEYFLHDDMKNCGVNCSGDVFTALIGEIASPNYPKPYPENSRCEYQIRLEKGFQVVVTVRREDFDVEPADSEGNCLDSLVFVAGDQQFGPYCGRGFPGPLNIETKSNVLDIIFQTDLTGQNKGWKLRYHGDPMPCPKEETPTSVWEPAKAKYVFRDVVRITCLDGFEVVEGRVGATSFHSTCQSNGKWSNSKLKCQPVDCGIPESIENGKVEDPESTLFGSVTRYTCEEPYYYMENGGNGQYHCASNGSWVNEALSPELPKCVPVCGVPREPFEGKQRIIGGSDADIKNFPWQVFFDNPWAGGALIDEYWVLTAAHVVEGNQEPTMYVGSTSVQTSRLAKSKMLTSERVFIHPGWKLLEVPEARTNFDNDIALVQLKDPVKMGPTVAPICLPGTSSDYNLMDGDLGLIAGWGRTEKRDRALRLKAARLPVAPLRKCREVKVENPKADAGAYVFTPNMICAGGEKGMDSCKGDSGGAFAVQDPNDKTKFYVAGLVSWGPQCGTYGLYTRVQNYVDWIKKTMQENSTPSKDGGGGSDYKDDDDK", "T1 chain 2": "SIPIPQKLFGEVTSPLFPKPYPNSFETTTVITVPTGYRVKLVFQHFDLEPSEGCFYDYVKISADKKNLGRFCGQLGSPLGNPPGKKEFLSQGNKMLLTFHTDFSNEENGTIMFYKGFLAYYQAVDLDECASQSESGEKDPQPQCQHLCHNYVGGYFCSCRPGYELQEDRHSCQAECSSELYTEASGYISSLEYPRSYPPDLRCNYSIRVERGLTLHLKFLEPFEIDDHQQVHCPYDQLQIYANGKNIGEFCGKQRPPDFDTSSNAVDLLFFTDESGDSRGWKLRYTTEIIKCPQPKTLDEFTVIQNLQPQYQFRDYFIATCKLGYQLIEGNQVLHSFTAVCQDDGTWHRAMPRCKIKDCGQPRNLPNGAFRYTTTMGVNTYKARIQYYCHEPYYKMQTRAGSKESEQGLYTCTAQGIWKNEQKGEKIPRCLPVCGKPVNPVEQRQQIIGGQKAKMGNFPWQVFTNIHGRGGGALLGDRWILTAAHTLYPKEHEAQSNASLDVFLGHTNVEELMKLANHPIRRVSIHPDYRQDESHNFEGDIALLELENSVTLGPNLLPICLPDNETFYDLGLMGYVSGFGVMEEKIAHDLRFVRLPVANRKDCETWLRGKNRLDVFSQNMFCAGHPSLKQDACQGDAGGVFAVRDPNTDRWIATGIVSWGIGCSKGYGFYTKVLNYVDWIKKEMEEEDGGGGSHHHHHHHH", "assay": "SPR (Biacore), antibody captured on ProA/G, antigen as analyte, 37 C, pH7.4, 1.2 mM CaCl2", "description": "The kinetic parameters of anti-C1s antibodies against recombinant human C1s (as described in PCT/JP2018/042054), human C1r2s2, and cyno C1r2s2 His/Flag (also referred as cyno C1r2s2 in the Table and Figures) were assessed at pH7.4 and pH5.8, at 37 degrees C. using BIACORE (registered trademark) T200 instrument (GE Healthcare) or BIACORE 4000 (GE Healthcare). ProAG (Pierce) was immobilized onto a CM4 sensorchip using amine coupling kit (GE Healthcare) according to the recommended settings by GE Healthcare. Antibodies and analytes were diluted into the respective running buffers, ACES pH7.4 and pH5.8 (20 mM ACES, 150 mM NaCl, 1.2 mM CaCl₂, 1 mg/ml BSA, 1 mg/ml CMD, 0.05% Tween 20, 0.005 w/v % NaN₃). Each antibody was captured onto the sensor surface by ProA/G. Antibody capture levels were typically 100-200 resonance units (RU). Then, recombinant C1s was injected at concentrations of 25 and 50 nM followed by dissociation at pH7.4 and pH5.8. The surface was regenerated using 10 mM Glycine-HCl, pH1.5. Kinetic parameters at neutral pH conditions and acidic conditions were determined by fitting the sensorgrams with 1:1 binding model using BIACORE (registered trademark) T200 Evaluation software, version 2.0 (GE Healthcare) or BIACORE 4000 Evaluation software. The dissociation rate at pH5.8 (after dissociation at pH7.4, indicated as pH5.8* in TABLE 2) was determined by processing and fitting data using Scrubber 2.0 (BioLogic Software) curve fitting software. The association rate (ka), dissociation rate (kd), binding affinity (KD) at pH7.4 and pH5.8 condition, and dissociation rate (kd) at pH5.8* condition of the antibodies are listed in TABLE 2. Some kinetic parameters of COS0098pHv1 in acidic condition were not correctly calculated because of its weak binding response.\nAlso, to observe the cross-reactivity of anti-C1s antibodies against human C1r2s2 and cyno C1r2s2 (cyno C1r2s2 His/Flag), BIACORE (registered trademark) kinetics analysis was performed.", "data": [{"binder": "COS0098pHv1 (antibody, V domains shown, Humanized, optimized pH-dependent variant of COS0098bb) VH: QVQLVQSGAEVKKPGSSVKVSCKASGHTFSKYTVSWIRQPPGKGLEWIGIINTGGSAYPATWAKGRVTITADESTSTAYMELSSLRSEDTAVYYCARGAGDTDYTNLWGQGTLVTVSS VL: DIQMTQSPSSLSASVGDRVTITCQASENIYSALAWYQQKPGQPPKLLIYGASQLESGVPSRFSGSGSGTDFTLTISSLQPEDFATYYCQQYYFTSHTFGQGTKVEIK", "values": [{"measurement": "Kd", "result": 2.87, "unit": "nM"}, {"measurement": "koff", "result": 0.00125, "unit": "s⁻¹"}, {"measurement": "kon", "result": 435000, "unit": "M⁻¹ s⁻¹"}]}]}
